T1: Fusion protein of extracellular domain of human TIGIT and mouse IgG2a Fc fragment (human TIGIT ECD-mFc) (human)
T1 construct: The entry includes the signal peptide (limits not recoverable) and the mouse IgG2a Fc
T1 chain: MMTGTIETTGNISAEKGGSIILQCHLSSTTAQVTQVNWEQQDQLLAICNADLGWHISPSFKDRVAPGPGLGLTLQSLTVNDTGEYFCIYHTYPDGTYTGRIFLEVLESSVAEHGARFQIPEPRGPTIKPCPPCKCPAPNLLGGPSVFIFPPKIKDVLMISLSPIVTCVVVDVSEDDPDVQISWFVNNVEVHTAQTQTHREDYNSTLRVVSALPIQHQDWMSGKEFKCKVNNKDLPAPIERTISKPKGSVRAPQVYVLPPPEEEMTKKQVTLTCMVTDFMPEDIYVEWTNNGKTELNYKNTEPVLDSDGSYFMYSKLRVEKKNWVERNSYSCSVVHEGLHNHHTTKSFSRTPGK

T2: Full-length human TIGIT on CHO-K1 cells (CHO-K1 human TIGIT) (human, UniProt Q495A1 22-244)
T2 construct: NCBI XP_024309156.1; the entry includes the signal peptide (limits not recoverable); The strain (high, medium, low) is named under assay; also called high expression strain 1D2; medium expression strain 2D10
T2 sequence: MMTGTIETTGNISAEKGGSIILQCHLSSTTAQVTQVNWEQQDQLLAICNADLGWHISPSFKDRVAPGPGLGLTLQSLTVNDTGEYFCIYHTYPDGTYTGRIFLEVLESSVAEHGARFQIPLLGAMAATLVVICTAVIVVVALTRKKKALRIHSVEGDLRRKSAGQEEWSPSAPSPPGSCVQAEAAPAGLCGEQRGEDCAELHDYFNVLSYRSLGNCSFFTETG


Columns and labels:
[1] = target: T1, Fusion protein of extracellular domain …; experiment: ELISA, human TIGIT ECD-mFc
Protocol: (§1) After discarding the coating solution, the plate was added with 5% skim milk powder (Sangon Biotech, CAT #A600669-0250)-PBS, 250 μL/well, and incubated at 37° C. for 2-4 hours. […] The enzyme-labeled plate was then washed with 0.05% Tween 20-PBS for 3 times on the Microplate Washer, added with tested antibodies diluted to 13 nM with 1% BSA (diluted by 3-fold serial dilution for 12 concentration points), 50 μL/well, and incubated at 37° C. for 1.5-2 hours. The plate was washed with 0.05% Tween 20-PBS for 3 times on the Microplate Washer, then added with HRP enzyme-labeled antibodies (Merck, CAT #AP113P) diluted with 1% BSA (Sangon Biotech, CAT #A500023-0100)-PBS at a dilution ratio of 1:5000, 50 μL/well, and incubated at 37° C. for 1 hour. After washing 3 times with 0.05% Tween 20-PBS on the Microplate Washer, the plate was added with TMB chromogenic solution (KPL, CAT #52-00-03), 50 μL/well, and incubated at room temperature for 7-10 minutes. 1M HCL, 50 μL/well, was then added into the plate to terminate the reaction, and the OD450 nm was read by a microplate reader (Biotek, Powerwave HT). […] (b) The binding activity of anti-TIGIT chimeric antibodies to CHO-K1 human TIGIT (cells with high, medium and low expression levels) and CHO-KI cynomolgus monkey TIGIT detected by FACS.
(§2) The affinity of the above humanized antibodies with human TIGIT ECD-His is detected by BIAcore, and with reference to the methods of Example 4 (a), (b), and (d), the binding activity of the above humanized antibodies to human TIGIT ECD-mFc, CHO-K1 human TIGIT, CHO-K1 cynomolgus monkey TIGIT and cynomolgus monkey TIGIT ECD-mFc, and the effect of the humanized antibodies blocking the binding between human TIGIT ECD-mFc and CHO-K1 CD155 are detected, the results are shown in Table 18.

[2] = target: T3, Full-length cynomolgus monkey TIGIT on CHO-K1 cells (CHO-K1 cynomolgus monkey TIGIT) (cynomolgus monkey); experiment: cell binding, CHO-K1 cynomolgus monkey TIGIT
T3 construct: NCBI XP_015300911.1
Protocol: (§3) The collected cells were washed once with PBS (Hyclone, CAT #SH30256), resuspended to 2×10⁵/50 μL with 1% BSA-PBS. The antibodies were diluted to 80 nM with 1% BSA-PBS (diluted by 3-fold serial dilution for 12 concentration points). The 50 μL cells were then mixed with 50 μL diluted antibodies, and then incubated at 4° C. for 60 minutes. […] After washing twice with PBS, the cell samples were resuspended with 1% BSA-PBS, 100 μL/well and then analyzed by flow cytometry (BD, Canto II). […] [0298] (c) The effect of anti-TIGIT chimeric antibodies blocking the interaction between Bio-CD155-His and CHO-K1 human TIGIT high expression cell strains detected by FACS
as §2

[3] = target: T2, Full-length human TIGIT on CHO-K1 cells …; experiment: cell binding, CHO-K1 human TIGIT high expression strain
Protocol: as §3, §2

[4] = target: T4, Fusion protein of extracellular domain of human TIGIT and human IgG1 Fc fragment (human TIGIT ECD-hFc) (human); experiment: blocking of TIGIT ECD-hFc binding to CHO-K1 CD155 cells
T4 construct: The entry includes the signal peptide (limits not recoverable) and the human IgG1 Fc
Method in brief: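 Inhibition was expressed as IC50 values derived from the inhibition curves of a cell-based ELISA. CHO-K1 CD155 cells were cultured overnight, fixed, and blocked with 5% skim milk-PBS. Antibodies were first premixed for 0.5 h with human TIGIT ECD-hFc at a working concentration of 30 ng/mL, and the mixture was then added to the cells for 1.5-2 h at 37° C. Bound TIGIT was detected with HRP secondary antibody (1:5000, 37° C, 1 h) and TMB, and read as OD450 nm.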

[5] = target: T5, Fusion protein of extracellular domain of cynomolgus monkey TIGIT and mouse IgG2a Fc fragment (cynomolgus … (cynomolgus monkey)); experiment: ELISA, cynomolgus monkey TIGIT ECD-mFc
T5 construct: The entry includes the signal peptide (limits not recoverable) and the mouse IgG2a Fc
Protocol: as §1, §2

T5 sequence (chain, as listed by the source limits assumed): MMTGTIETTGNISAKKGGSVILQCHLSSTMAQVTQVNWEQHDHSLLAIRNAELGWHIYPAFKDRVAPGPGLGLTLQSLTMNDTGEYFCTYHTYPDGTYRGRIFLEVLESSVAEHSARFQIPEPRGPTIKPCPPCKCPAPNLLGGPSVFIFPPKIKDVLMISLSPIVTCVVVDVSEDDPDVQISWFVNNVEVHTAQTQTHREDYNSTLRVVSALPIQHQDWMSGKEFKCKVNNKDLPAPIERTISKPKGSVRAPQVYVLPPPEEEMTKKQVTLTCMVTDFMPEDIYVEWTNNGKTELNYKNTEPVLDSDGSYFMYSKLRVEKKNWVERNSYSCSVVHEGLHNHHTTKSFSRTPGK
T4 sequence (chain, as listed by the source limits assumed): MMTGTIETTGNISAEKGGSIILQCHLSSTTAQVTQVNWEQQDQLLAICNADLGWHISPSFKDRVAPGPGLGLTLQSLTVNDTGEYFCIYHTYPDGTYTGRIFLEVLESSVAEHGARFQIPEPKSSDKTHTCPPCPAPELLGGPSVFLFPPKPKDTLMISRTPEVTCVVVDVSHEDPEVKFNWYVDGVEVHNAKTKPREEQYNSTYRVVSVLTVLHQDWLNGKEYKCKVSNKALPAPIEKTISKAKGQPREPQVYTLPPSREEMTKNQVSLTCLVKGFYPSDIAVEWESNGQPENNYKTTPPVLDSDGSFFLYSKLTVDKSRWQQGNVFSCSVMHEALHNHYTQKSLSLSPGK
T3 sequence (chain, as listed by the source limits assumed): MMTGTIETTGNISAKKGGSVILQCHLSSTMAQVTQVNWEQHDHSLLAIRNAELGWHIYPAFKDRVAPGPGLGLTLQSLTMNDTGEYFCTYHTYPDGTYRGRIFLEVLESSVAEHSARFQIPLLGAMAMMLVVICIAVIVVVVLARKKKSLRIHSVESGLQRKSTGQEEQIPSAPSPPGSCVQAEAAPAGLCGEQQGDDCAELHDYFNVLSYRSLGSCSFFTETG

Row | EC50 [1] [pM] | EC50 [2] [pM] | EC50 [3] [pM] | IC50 [4] [pM] | EC50 [5] [pM] | Binder
1 | 18.8 | 181 | 46.8 | 646 | 87.7 | TIGIT-002-H2L1 (antibody, V domains shown, Humanized anti-TIGIT antibody) VH: EVQLQESGPGLVKPSETLSLTCAVSGYSITSDSWNWIRQPPGKKLEWIGYISYSGNTYYNPSLKSRVTISRDTSKNQFSLKLSSVTAADTAVYYCARLDFSNYGGAVDYWGQGTTVTVSS VL: DIVMTQTPLSLSVTPGQPASISCKASQNVRTAVAWYLQKPGQSPQLMIYSASYRYTGVPDRFSGSGSGTDFTLKISRVEAEDVGVYYCQQYYTTPWTFGGGTKVEIK
2 | 15.8 | 221 | 16.7 | 421 | 81.1 | TIGIT-002-H1L2 (antibody, V domains shown, Humanized anti-TIGIT antibody) VH: EVQLQESGPGLVKPSETLSLTCAVSGYSITSDSWNWIRQPPGKGLEWIGYISYSGNTYYNPSLKSRVTISRDTSKNQFSLKLSSVTAADTAVYYCARLDFSNYGGAVDYWGQGTTVTVSS VL: DIVMTQTPLSLSVTPGQPASISCKASQNVRTAVAWYQQKPGQSPQLMIYSASYRYTGVPDRFSGSGSGTDFTLKISRVEAEDVGVYYCQQYYTTPWTFGGGTKVEIK
3 | 12 | 232 | 20.4 | 459 | 25.3 | TIGIT-002-H3L1 (antibody, V domains shown, Humanized anti-TIGIT antibody) VH: EVQLQESGPGLVKPSETLSLTCAVSGYSITSDSWNWIRQPPGKKLEWMGYISYSGNTYYNPSLKSRITISRDTSKNQFSLKLSSVTAADTAVYYCARLDFSNYGGAVDYWGQGTTVTVSS VL: DIVMTQTPLSLSVTPGQPASISCKASQNVRTAVAWYLQKPGQSPQLMIYSASYRYTGVPDRFSGSGSGTDFTLKISRVEAEDVGVYYCQQYYTTPWTFGGGTKVEIK
4 | 16.4 | 54.3 | 25.3 | 445 | 20.6 | TIGIT-002-H4L1 (antibody, V domains shown, Humanized anti-TIGIT antibody) VH: EVQLQESGPGLVKPSETLSLTCAVSGYSITSDSWNWIRQPPGKKLEYIGYISYSGNTYYNPSLKSRVTISRDTSKNQFSLKLSSVTAADTAVYYCARLDFSNYGGAVDYWGQGTTVTVSS VL: DIVMTQTPLSLSVTPGQPASISCKASQNVRTAVAWYLQKPGQSPQLMIYSASYRYTGVPDRFSGSGSGTDFTLKISRVEAEDVGVYYCQQYYTTPWTFGGGTKVEIK
5 | 15.5 | 187 | 20.1 | 526 | 209 | TIGIT-002-H1L1 (antibody, V domains shown, Humanized anti-TIGIT antibody) VH: EVQLQESGPGLVKPSETLSLTCAVSGYSITSDSWNWIRQPPGKGLEWIGYISYSGNTYYNPSLKSRVTISRDTSKNQFSLKLSSVTAADTAVYYCARLDFSNYGGAVDYWGQGTTVTVSS VL: DIVMTQTPLSLSVTPGQPASISCKASQNVRTAVAWYLQKPGQSPQLMIYSASYRYTGVPDRFSGSGSGTDFTLKISRVEAEDVGVYYCQQYYTTPWTFGGGTKVEIK
6 | 22.2 | 120 | 21.5 | 560 | 55.4 | TIGIT-002-H2L2 (antibody, V domains shown, Humanized anti-TIGIT antibody) VH: EVQLQESGPGLVKPSETLSLTCAVSGYSITSDSWNWIRQPPGKKLEWIGYISYSGNTYYNPSLKSRVTISRDTSKNQFSLKLSSVTAADTAVYYCARLDFSNYGGAVDYWGQGTTVTVSS VL: DIVMTQTPLSLSVTPGQPASISCKASQNVRTAVAWYQQKPGQSPQLMIYSASYRYTGVPDRFSGSGSGTDFTLKISRVEAEDVGVYYCQQYYTTPWTFGGGTKVEIK
7 | 17 | 113 | 32.9 | 394 | 21.8 | TIGIT-002-H3L2 (antibody, V domains shown, Humanized anti-TIGIT antibody) VH: EVQLQESGPGLVKPSETLSLTCAVSGYSITSDSWNWIRQPPGKKLEWMGYISYSGNTYYNPSLKSRITISRDTSKNQFSLKLSSVTAADTAVYYCARLDFSNYGGAVDYWGQGTTVTVSS VL: DIVMTQTPLSLSVTPGQPASISCKASQNVRTAVAWYQQKPGQSPQLMIYSASYRYTGVPDRFSGSGSGTDFTLKISRVEAEDVGVYYCQQYYTTPWTFGGGTKVEIK

— patent US20240343803A1 (SHANDONG SIMCERE BIOPHARMACEUTICAL, published 2024)
